In US20170066830A1 (MERSANA THERAPEUTICS, published 2017):
Changes are numbered by the printed parent chain.

B1: XMT 1519 antibody (antibody, human IgG1, kappa, V domains shown)
VH: EVQLVESGGGLVQPGGSLRLSCAASGFTFSSYSMNWVRQAPGKGLEWVSYISSSSSTIYYADSVKGRFTISRDNAKNSLYLQMNSLRAEDTAVYYCARGGHGYFDLWGRGTLVTVSS
VL: not shown
B2: Example 16H, XMT 1519-(EG2-MI-(10 kDa PHF-BA-(AF-HPA-Ala))) (antibody, human IgG1, kappa, V domains shown)
VH: B1 VH
VL: not shown
modifications: polymer-drug scaffolds on cysteine thiols possible; positions not given; EG2-MI-(10 kDa PHF-BA-(AF-HPA-Ala)) polymer-drug scaffolds joined to cysteine thiols of the partially reduced antibody; positions not given; DAR about 11.8:1 to about 17.5:1
B3: XMT 1520 antibody (antibody, human IgG1, kappa, V domains shown)
VH: B1 VH with S31G, Y32R, S54D, S56R
VL: not shown
B4: XMT 1518 antibody (antibody, human IgG1, kappa, V domains shown)
VH: QVQLVESGGGVVQPGRSLRLSCAASGFTFSSYGMHWVRQAPGKGLEWVAGIWWDGSNEKYADSVKGRFTISRDNSKNTLYLQMNSLRAEDTAVYYCAKEAPYYAKDYMDVWGKGTTVTVSS
VL: EIVLTQSPGTLSLSPGERATLSCRASQSVSSDYLAWYQQKPGQAPRLLIYGASRRATGIPDRFSGSGSGTDFTLTISRLEPEDFAVYYCQQYVSYWTFGGGTKVEIKR

What was measured:
[1] = target: T1, full-length human HER2 receptor on cells (human, UniProt P04626 23-1255); assay: cell-based or functional assay
[2] = target: T1, full-length human HER2 receptor on cells; assay: flow cytometry competition on JIMT-1 cells: unlabeled XMT 1519 titrated against 30 nM Alexa Fluor 647-labeled XMT 1519
[3] = target: T1, full-length human HER2 receptor on cells; assay: flow cytometry on JIMT-1 cells, Alexa Fluor 647 goat anti-human IgG detection
Protocol: The cell surface binding of the HER2 antibodies to JIMT-1 cells were evaluated using a Macsquant flow cytometer (Miltenyi Biotec, Bergisch Gladbach, Germany). JIMT-1 cells, grown overnight to approximately 90% confluent cultures in DMEM media (ATCC, Manassas, Va.) with 10% FBS (Gibco®, Life Technologies, Grand Island, N.Y.), were released from the plate surface by treatment with Accutase cell detachment solution (Innovative Cell Technologies, San Diego, Calif.). The detached cells were washed once with ice cold media containing 6% goat serum and resuspended in the same media. 100,000 cells were aliquoted per well of a V-bottom, 96-well plate and incubated with a range of HER2 antibody concentrations (0.05-100 nM) in 150 μl DMEM with 6% goat serum on ice for 3 hours. […] The cells were washed once with ice cold PBS (Gibco®, Life Technologies, Cat.# 10010049) and suspended in 200 μl of ice cold PBS with 1% paraformaldehyde. The amount of fluorescence bound per cell was determined by running 5000 cells for each treatment on the flow cytometer. The median fluorescence value for each treatment was graphed, and the dissociation constant, Kd, was calculated for each antibody with Graphpad Prism software by non-linear regression using the single site, specific binding model.

[4] = target: T2, recombinant cynomolgus monkey HER2 extracellular domain (amino acids 1-652, Sino Biological Cat.# 90295-CO8H) (cynomolgus monkey, UniProt A0A2K5WUT7 1-622); assay: ELISA, HER2 extracellular domain coated on plate, one site specific binding fit
T2 construct: range 1-652; Bought protein; the stated range 1-652 includes the signal peptide of the construct
Protocol: (§1) The affinity of the antibodies for recombinant human and cynomolgus monkey HER2 was determined by an ELISA assay. […] The wells were washed 4 times with TTBS (50 mM Tris-HCl, pH 7.4, 150 mM NaCl, and 0.05% Tween 20). The wells were blocked by incubation with 50 μl of TTBS containing 5% bovine serum albumin for 1 hr. […] Unbound test antibodies were removed with TTBS washes (4×). […] Unbound secondary antibody was removed by 4 TTBS washes. The HRP substrate, TMB Bethyl Laboratories#E102) was added to each well and incubated until a yellow color was visible. The reaction was stopped by the addition of 50 μl of 0.2 N sulfuric acid. […] Kd was determined by non-linear regression using the one site, specific binding model.

[5] = target: recombinant human HER2 extracellular domain (amino acids 23-652, Acro Biosystems Cat.# HE2-H5225) (human, UniProt P04626 23-652); assay: as above
Protocol: as §1

[6] = target: T1, full-length human HER2 receptor on cells; assay: flow cytometry competition on JIMT-1 cells: unlabeled XMT 1518 titrated against 30 nM Alexa Fluor 647-labeled XMT 1519
[7] = target: T1, full-length human HER2 receptor on cells; assay: cell-based or functional assay; remark: listed apart in the source

Row | Binder | AKT phosphorylation in BT474 cells after 4 h antibody (western) [1] | HER3 phosphorylation (Tyr 1289) in BT474 cells after 4 h antibody (western) [1] | EC50 (read off the curve) [3] | also measured
1 | B1 | 21 % of untreated cells | 71 % of untreated cells | ~1 nM | IC50 (read off the curve) [2]: ~5 nM
2 | B2 |  |  |  | Kd [4]: 0.05 nM; Kd [5]: 0.05 nM
3 | B3 | 30 % of untreated cells | 76 % of untreated cells | ~1 nM | 
4 | B4 |  |  |  | IC50 (read off the curve) [6]: ~3 nM; AKT phosphorylation in MCF7 cells after 4 h antibody [7]: 103 % of untreated cells
